Residue numbers refer to the chain shown, from its start.
How the values were obtained:
Test in all cases: cell_activity
[1] = tested on: T1, phiC31 integrase (wild type, -8 ATG start) (Streptomyces phage phiC31); settings: integration of pCMV-pur-attB into chicken DF-1 genome pseudo-attP sites; 103.8 colonies avg
T1 sequence: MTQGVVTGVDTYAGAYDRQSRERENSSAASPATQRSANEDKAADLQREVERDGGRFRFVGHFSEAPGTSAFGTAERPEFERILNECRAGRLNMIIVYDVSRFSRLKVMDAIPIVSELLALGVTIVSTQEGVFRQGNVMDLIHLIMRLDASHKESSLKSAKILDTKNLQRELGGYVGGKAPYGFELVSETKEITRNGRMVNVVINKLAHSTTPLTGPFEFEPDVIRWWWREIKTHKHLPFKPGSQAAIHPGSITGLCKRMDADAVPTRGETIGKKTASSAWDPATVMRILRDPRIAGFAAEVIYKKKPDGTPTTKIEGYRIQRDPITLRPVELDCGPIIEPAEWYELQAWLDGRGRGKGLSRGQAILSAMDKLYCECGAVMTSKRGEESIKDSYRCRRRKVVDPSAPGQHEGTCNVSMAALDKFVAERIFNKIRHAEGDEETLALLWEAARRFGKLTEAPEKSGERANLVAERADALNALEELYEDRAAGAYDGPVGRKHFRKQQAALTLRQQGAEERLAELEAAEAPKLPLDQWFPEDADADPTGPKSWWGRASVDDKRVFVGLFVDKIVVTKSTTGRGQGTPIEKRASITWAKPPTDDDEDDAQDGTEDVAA

[2] = tested on: T2, 3rdGTG-int-NLS234 insertion PPKKKRKVE between G and S at position 234 (SEQ 61) (Streptomyces phage phiC31); settings: DF-1 cells; 30 colonies avg
T2 sequence: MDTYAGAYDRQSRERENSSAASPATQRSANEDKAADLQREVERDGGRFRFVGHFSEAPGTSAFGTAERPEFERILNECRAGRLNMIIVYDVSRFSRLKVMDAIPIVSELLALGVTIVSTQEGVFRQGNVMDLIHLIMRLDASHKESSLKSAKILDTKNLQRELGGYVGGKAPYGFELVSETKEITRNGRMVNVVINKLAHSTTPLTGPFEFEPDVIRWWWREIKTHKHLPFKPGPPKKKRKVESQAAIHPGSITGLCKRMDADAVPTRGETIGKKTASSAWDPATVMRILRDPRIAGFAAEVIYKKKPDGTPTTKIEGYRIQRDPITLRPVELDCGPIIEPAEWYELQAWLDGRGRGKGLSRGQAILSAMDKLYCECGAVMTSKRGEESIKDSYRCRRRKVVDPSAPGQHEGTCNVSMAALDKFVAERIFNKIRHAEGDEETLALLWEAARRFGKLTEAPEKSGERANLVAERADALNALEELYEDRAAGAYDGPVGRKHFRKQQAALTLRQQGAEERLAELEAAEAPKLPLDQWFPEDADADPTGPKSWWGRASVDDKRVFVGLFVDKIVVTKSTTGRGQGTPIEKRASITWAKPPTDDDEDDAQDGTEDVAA

[3] = tested on: T3, 3rdGTG-int (+1 start) (Streptomyces phage phiC31); settings: DF-1 cells; 14 colonies avg
T3 sequence: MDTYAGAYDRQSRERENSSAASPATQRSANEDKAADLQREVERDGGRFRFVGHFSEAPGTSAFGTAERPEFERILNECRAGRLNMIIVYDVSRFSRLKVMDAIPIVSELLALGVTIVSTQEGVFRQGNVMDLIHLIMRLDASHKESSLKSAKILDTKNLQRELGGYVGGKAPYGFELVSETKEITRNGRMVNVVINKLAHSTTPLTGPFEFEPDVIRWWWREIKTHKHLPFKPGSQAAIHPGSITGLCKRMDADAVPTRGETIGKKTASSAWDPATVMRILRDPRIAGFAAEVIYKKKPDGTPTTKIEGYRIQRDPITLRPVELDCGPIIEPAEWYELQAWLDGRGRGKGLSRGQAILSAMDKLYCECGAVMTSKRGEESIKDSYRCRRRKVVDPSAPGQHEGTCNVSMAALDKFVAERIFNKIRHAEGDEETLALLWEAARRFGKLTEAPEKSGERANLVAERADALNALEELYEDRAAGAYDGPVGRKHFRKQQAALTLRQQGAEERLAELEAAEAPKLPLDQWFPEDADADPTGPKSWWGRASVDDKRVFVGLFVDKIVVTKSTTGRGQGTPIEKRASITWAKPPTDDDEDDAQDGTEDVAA

[4] = tested on: T4, int-NLS234 insertion PPKKKRKVE between G and S at position 234 (SEQ 61) (Streptomyces phage phiC31); settings: DF-1 cells; 84 colonies avg
T4 sequence: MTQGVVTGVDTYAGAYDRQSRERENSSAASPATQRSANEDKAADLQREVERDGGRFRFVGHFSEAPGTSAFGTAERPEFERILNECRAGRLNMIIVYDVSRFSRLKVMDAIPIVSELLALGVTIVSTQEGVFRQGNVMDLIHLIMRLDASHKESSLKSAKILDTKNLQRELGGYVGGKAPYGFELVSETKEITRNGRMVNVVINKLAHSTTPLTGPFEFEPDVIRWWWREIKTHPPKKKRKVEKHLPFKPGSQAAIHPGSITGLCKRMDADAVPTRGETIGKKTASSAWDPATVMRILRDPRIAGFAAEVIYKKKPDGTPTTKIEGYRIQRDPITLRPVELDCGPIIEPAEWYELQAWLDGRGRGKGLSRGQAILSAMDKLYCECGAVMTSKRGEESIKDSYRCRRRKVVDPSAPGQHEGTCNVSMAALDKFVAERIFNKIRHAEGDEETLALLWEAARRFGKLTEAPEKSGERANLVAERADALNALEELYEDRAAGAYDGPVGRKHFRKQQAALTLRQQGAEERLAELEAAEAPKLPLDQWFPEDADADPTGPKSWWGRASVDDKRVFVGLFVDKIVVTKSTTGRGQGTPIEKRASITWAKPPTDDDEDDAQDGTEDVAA

[5] = tested on: T5, NLS-int-2 MEPKKKRKV added upstream of -8 M (SEQ 58) (Streptomyces phage phiC31); settings: DF-1 cells; 6 colonies avg
T5 sequence: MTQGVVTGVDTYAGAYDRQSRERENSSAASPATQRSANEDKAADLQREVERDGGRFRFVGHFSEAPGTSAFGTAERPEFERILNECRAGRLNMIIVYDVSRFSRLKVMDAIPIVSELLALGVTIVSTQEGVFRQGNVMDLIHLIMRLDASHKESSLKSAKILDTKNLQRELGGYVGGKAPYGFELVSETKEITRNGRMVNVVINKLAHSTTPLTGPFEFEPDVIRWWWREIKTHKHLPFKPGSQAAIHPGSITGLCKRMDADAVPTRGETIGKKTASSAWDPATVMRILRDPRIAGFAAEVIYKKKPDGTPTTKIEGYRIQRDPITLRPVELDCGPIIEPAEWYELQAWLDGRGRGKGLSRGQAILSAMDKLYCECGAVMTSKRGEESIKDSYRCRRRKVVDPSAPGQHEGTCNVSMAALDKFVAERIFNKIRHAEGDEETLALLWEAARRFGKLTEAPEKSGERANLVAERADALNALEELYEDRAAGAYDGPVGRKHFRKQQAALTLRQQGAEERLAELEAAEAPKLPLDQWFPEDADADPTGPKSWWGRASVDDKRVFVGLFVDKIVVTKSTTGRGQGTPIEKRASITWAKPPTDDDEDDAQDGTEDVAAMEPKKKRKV

[6] = tested on: T6, 3rdGTG-int-NLS PKKKRKV appended after A605 (Streptomyces phage phiC31); settings: DF-1 cells; 10 colonies, one experiment
T6 sequence: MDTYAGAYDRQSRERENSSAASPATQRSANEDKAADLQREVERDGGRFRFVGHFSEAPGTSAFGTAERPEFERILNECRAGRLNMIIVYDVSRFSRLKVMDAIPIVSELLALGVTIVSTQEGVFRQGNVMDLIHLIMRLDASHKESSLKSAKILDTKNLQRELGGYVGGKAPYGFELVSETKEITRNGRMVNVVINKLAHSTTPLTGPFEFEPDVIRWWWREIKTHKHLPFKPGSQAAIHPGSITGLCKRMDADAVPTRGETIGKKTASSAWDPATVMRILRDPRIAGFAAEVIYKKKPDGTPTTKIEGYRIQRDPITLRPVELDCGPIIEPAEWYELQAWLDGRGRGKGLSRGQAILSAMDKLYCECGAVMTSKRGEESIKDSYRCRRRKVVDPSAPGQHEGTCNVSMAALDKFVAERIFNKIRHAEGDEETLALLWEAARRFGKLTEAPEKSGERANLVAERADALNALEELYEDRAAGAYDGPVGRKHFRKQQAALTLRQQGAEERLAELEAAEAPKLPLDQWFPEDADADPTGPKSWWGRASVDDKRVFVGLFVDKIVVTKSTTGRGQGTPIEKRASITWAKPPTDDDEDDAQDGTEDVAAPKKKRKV

[7] = tested on: T7, NLS-int-1 N-terminal MTQGVVTG replaced with MEPKKKRK (SEQ 57), joined at +1 V (Streptomyces phage phiC31); settings: DF-1 cells; 2.5 colonies avg, background level; reflects recombination activity, not binding
T7 sequence: T1 sequence with T2E, Q3P, G4K, V5K, V6K, T7R, G8K

[8] = tested on: T8, c-myc-NLS-int N-terminal MTQGVVT replaced with MAPAAKRLKLDSL (SEQ 59), NLS joined at -1 G (Streptomyces phage phiC31); settings: DF-1 cells; 56.2 colonies avg
T8 sequence: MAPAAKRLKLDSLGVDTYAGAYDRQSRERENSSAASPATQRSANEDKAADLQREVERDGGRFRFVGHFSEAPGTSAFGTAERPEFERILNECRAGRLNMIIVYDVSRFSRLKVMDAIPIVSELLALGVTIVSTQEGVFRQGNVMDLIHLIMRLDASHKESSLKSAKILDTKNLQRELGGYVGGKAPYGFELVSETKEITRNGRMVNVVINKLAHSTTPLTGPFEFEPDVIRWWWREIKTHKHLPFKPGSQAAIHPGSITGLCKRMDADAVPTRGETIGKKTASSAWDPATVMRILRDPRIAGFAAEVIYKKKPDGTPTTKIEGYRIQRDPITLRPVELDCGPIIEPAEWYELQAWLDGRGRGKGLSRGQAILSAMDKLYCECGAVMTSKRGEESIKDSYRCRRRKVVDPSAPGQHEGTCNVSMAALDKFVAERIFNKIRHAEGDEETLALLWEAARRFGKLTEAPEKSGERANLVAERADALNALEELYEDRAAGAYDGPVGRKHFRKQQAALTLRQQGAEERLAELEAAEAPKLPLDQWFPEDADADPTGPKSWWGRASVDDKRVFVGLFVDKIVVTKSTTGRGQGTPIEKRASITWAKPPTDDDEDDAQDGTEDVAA

phiC31 attB (donor plasmid)
activity (fold over no integrase) [1]: 39.9 | activity (fold over no integrase) [2]: 11.5 | activity (fold over no integrase) [3]: 5.4 | activity (fold over no integrase) [4]: 32.3 | activity (fold over no integrase) [5]: 2.3 | activity (fold over no integrase) [6]: 3.8 | activity (fold over no integrase) [7]: 1 | activity (fold over no integrase) [8]: 21.6
